# Data published in patent publication US20250352661A1 (MYTHIC THERAPEUTICS, published 2025).
# Substitutions are numbered along the chain they refer to. Names and notes keep the numbering of the source.
# T1: Human LRRC15 Protein, His Tag (Acro Biosystems) (human, UniProt Q8TF66 22-538, limits assumed)
# T1 construct: Bought protein with His tag
# T1 sequence (looked up): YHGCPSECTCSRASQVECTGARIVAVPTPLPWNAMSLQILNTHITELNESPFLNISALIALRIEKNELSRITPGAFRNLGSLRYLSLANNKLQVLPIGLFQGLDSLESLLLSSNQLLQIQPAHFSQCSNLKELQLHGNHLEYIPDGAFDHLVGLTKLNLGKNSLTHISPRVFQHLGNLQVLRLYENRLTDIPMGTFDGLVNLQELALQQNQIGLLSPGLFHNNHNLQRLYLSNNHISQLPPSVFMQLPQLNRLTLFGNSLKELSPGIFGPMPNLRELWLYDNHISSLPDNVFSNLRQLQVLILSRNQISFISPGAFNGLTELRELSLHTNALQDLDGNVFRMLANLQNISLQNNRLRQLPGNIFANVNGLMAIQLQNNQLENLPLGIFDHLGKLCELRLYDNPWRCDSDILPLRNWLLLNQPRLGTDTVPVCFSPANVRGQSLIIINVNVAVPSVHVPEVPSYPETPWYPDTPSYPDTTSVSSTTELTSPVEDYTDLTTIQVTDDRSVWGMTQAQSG
# T2: Human LRRC15 Protein, His Tag (Acro Biosystems) (human, UniProt Q8TF66 22-538, limits assumed)
# T2 construct: not shown: His tag
# T2 sequence (looked up): T1 sequence (looked up)
# B1: MYT6122 (antibody, V domains shown)
# VH: QEQLEESGGDLVKPGASLTLTCTASGLDFRRTNYICWVRQAPGKGLEWIGCIYIADVVHYYASWAKGRFTFSKTSSTTVTLQMTSLTAADTATYFCARGADGGFVYGMDLWGPGTLVTVSS
# VL: DVVMTQTPASVSEPVGGTVTIKCHASQSIGNYLSWYQQKPGQRPKRLIYSASTLPSGVPSRFKGAGSGTEFTLTISDLESADAATYYCQNNYWLAGYGHPFGGGTEVVVK
# notes: rabbit 15G7 VL Q24H; chimeric, human constant regions
# B2: MYT6128 (antibody, V domains shown)
# VH: B1 VH
# VL: B1 VL with H24Q, G30H
# notes: rabbit 15G7 VL G30H; chimeric, human constant regions
# B3: MYT6127 (antibody, V domains shown)
# VH: B1 VH
# VL: B1 VL with H24Q, I29H
# notes: rabbit 15G7 VL I29H; chimeric, human constant regions
# B4: MYT6125 (antibody, V domains shown)
# VH: B1 VH
# VL: B1 VL with H24Q, Q27H
# notes: rabbit 15G7 VL Q27H; chimeric, human constant regions
# B5: MYT6124 (antibody, V domains shown)
# VH: B1 VH
# VL: B1 VL with H24Q, S26H
# notes: rabbit 15G7 VL S26H; chimeric, human constant regions
# B6: MYT6123 (antibody, V domains shown)
# VH: B1 VH
# VL: B1 VL with H24Q, A25H
# notes: rabbit 15G7 VL A25H; chimeric, human constant regions
# B7: MYT6126 (antibody, V domains shown)
# VH: B1 VH
# VL: B1 VL with H24Q, S28H
# notes: rabbit 15G7 VL S28H; chimeric, human constant regions
# B8: MYT7932 (antibody, V domains shown)
# VH: QQQLVESGGGLVKPGASLTLTCKASGFSFSGSYWICWVRQAPGKGLEWIGCINGGSLDITYYASWAKGRFTISKASSTTVTLQKTSLTAADTATYFCASDTSYTAYGNFYFNLWGPGTLVTVSS
# VL: AQVLTQTASPVSAAVGGTVTINCQSSQSVHNNNWLAWYQQKPGQPPKLLIYDASSLASGVPSRFKGSGSGTQFTLTISDLESDDAATYYCQGEFSCGSADCNAFGGGTEVVVKG
# notes: tested as culture supernatant; also called 24D9 VL L30H
# B9: MYT7955 (antibody, V domains shown)
# VH: B8 VH
# VL: B8 VL with H30L, D100H
# notes: tested as culture supernatant; also called 24D9 VL D100H
# B10: MYT7957 (antibody, V domains shown)
# VH: B8 VH
# VL: B8 VL with H30L, N102H
# notes: tested as culture supernatant; also called 24D9 VL N102H
# B11: MYT7940 (antibody, V domains shown)
# VH: B8 VH
# VL: B8 VL with H30L, A53H
# notes: tested as culture supernatant; also called 24D9 VL A53H
# B12: MYT7947 (antibody, V domains shown)
# VH: B8 VH
# VL: B8 VL with H30L, G92H
# notes: tested as culture supernatant; also called 24D9 VL G92H
# B13: MYT7951 (antibody, V domains shown)
# VH: B8 VH
# VL: B8 VL with H30L, C96H
# notes: tested as culture supernatant; also called 24D9 VL C96H
# B14: MYT7946 (antibody, V domains shown)
# VH: B8 VH
# VL: B8 VL with H30L, Q91H
# notes: tested as culture supernatant; also called 24D9 VL Q91H
# B15: MYT7945 (antibody, V domains shown)
# VH: B8 VH
# VL: B8 VL with H30L, S58H
# notes: tested as culture supernatant; also called 24D9 VL S58H
# B16: MYT7934 (antibody, V domains shown)
# VH: B8 VH
# VL: B8 VL with H30L, N32H
# notes: tested as culture supernatant; also called 24D9 VL N32H
# B17: MYT7948 (antibody, V domains shown)
# VH: B8 VH
# VL: B8 VL with H30L, E93H
# notes: tested as culture supernatant; also called 24D9 VL E93H
# B18: MYT7937 (antibody, V domains shown)
# VH: B8 VH
# VL: B8 VL with H30L, L35H
# notes: tested as culture supernatant; also called 24D9 VL L35H
# B19: MYT7938 (antibody, V domains shown)
# VH: B8 VH
# VL: B8 VL with H30L, A36H
# notes: tested as culture supernatant; also called 24D9 VL A36H
# B20: MYT7949 (antibody, V domains shown)
# VH: B8 VH
# VL: B8 VL with H30L, F94H
# notes: tested as culture supernatant; also called 24D9 VL F94H
# B21: MYT7958 (antibody, V domains shown)
# VH: B8 VH
# VL: B8 VL with H30L, A103H
# notes: tested as culture supernatant; also called 24D9 VL A103H
# B22: MYT7939 (antibody, V domains shown)
# VH: B8 VH
# VL: B8 VL with H30L, D52H
# notes: tested as culture supernatant; also called 24D9 VL D52H
# B23: MYT7942 (antibody, V domains shown)
# VH: B8 VH
# VL: B8 VL with H30L, S55H
# notes: tested as culture supernatant; also called 24D9 VL S55H
# B24: MYT7943 (antibody, V domains shown)
# VH: B8 VH
# VL: B8 VL with H30L, L56H
# notes: tested as culture supernatant; also called 24D9 VL L56H
# B25: MYT7953 (antibody, V domains shown)
# VH: B8 VH
# VL: B8 VL with H30L, S98H
# notes: tested as culture supernatant; also called 24D9 VL S98H
# B26: MYT7944 (antibody, V domains shown)
# VH: B8 VH
# VL: B8 VL with H30L, A57H
# notes: tested as culture supernatant; also called 24D9 VL A57H
# B27: MYT7935 (antibody, V domains shown)
# VH: B8 VH
# VL: B8 VL with H30L, N33H
# notes: also called 24D9 VL N33H
# B28: MYT7954 (antibody, V domains shown)
# VH: B8 VH
# VL: B8 VL with H30L, A99H
# notes: also called 24D9 VL A99H
# B29: MYT7933 (antibody, V domains shown)
# VH: B8 VH
# VL: B8 VL with H30L, N31H
# notes: also called 24D9 VL N31H
# B30: MYT7952 (antibody, V domains shown)
# VH: B8 VH
# VL: B8 VL with H30L, G97H
# notes: tested as culture supernatant; also called 24D9 VL G97H
# B31: MYT7936 (antibody, V domains shown)
# VH: B8 VH
# VL: B8 VL with H30L, W34H
# notes: tested as culture supernatant; also called 24D9 VL W34H
# B32: MYT7950 (antibody, V domains shown)
# VH: B8 VH
# VL: B8 VL with H30L, S95H
# notes: tested as culture supernatant; also called 24D9 VL S95H
# B33: MYT7941 (antibody, V domains shown)
# VH: B8 VH
# VL: B8 VL with H30L, S54H
# notes: tested as culture supernatant; also called 24D9 VL S54H
# Target: T1, Human LRRC15 Protein, His Tag (Acro …)
# Test: BLI; dissociation pH 7.4 black, pH 5.4 grey [D00008 FIG. 1F]
# From the text: For each individual plot, antigen binding proteins were captured on anti-human Fc biosensors and associated with LRRC15 at pH 7.4. Dissociation was at pH 7.4 (black) or pH 5.4 (grey). Major X-axis ticks=100 seconds, with left dashed vertical line=0 seconds. Major Y-axis ticks=0.5 nm and octet plots are shown MYT5712 and MYT6080-MYT6121.
# Multiple LRRC15-binding monoclonal antibodies have been described in the literature and can be used as a template for engineering pH-dependent binding. We selected discovery RabMAb clone 15G7 (rabbit VH SEQ ID NO: 378, rabbit VL SEQ ID NO: 451; humanized VH SEQ ID NO: 382, humanized VL SEQ ID NO: 455) as a LRRC15-binding monoclonal antibody for pH-engineering via histidine scanning. […] To generate pH-dependent sequence variants, individual amino acid residues within the heavy chain CDRs were systematically substituted with a histidine (or alanine if H was already present in a given position; e.g., MYT6099), one at a time (rabbit, MYT6080-6121). Desirable mutations were transferred to a humanized framework (humanized, MYT 8387-8411). After allowing for four days of protein expression, cell culture supernatants were collected, quantified by SDS-PAGE analysis, and the pH dependence of the variant was evaluated using biolayer interferometry (BLI) on an Octet RED 96e instrument. Briefly, cell culture supernatants were diluted based on qualitative expression level of the variant determined by visual examination of SDS-PAGE gels, 5 μL of cell culture supernatant was diluted into 195 μL of 1×PBST, pH 7.4 for high expressors, 25 μL of cell culture supernatant was diluted into 175 μL of 1×PBST, pH 7.4 for medium expressors and 100 μL of cell culture supernatant was diluted into 100 μL of 1×PBST, pH 7.4 for low expressors for loading onto the sensor tips.
row,Binder,binding result
1,B1,binds
2,B2,binds
3,B3,binds
4,B4,binds
5,B5,binds
6,B6,binds
7,B7,binds

# Target: T2, Human LRRC15 Protein, His Tag (Acro …)
# Test: BLI; dissociation pH 7.4 black, pH 5.4 grey [D00016 FIG. 3B]
row,Binder,binding result
1,B8,no binding (tested: 50 nM LRRC15)
2,B9,no binding (tested: 50 nM LRRC15)
3,B10,no binding (tested: 50 nM LRRC15)
4,B11,binds
5,B12,no binding (tested: 50 nM LRRC15)
6,B13,no binding (tested: 50 nM LRRC15)
7,B14,binds
8,B15,binds
9,B16,binds
10,B17,no binding (tested: 50 nM LRRC15)
11,B18,binds
12,B19,no binding (tested: 50 nM LRRC15)
13,B20,binds
14,B21,no binding (tested: 50 nM LRRC15)
15,B22,no binding (tested: 50 nM LRRC15)
16,B23,binds
17,B24,binds
18,B25,binds
19,B26,binds
20,B27,binds
21,B28,binds
22,B29,binds
23,B30,binds
24,B31,no binding (tested: 50 nM LRRC15)
25,B32,no binding (tested: 50 nM LRRC15)
26,B33,binds
